tested on: Escherichia coli TOP10; experiment: shrunken log2 fold change of peptide-encoding DNA abundance (4.5 h post-induction vs induction); higher = less antimicrobial activity (less host growth inhibition); conditions: time post-induction: 4.5 h; library: site-saturation at positions 5, 18, 19, 20
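Note: peptides expressed intracellularly from a pBAD plasmid library in pooled LB shake-flask culture, induced with 0.3% L-arabinose, DNA abundance read by NGS, three biological replicates, DESeq2 with apeglm shrinkage.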

Row | Sequence | shrunken log2 fold change
1 | RRIRWRPPRLPRPRPRPKWPPRP | 0.477
2 | RRIRNRPPRLPRPRPRPMKIPRP | -0.121
3 | RRIRKRPPRLPRPRPRPQINPRP | -0.159
4 | RRIRFRPPRLPRPRPRPFKKPRP | -0.119
5 | RRIRFRPPRLPRPRPRPAKPPRP | 0.901
6 | RRIRWRPPRLPRPRPRPMQWPRP | 0.379
7 | RRIRQRPPRLPRPRPRPYEMPRP | -0.153
8 | RRIRGRPPRLPRPRPRPVHDPRP | -0.0619
9 | RRIRHRPPRLPRPRPRPCMNPRP | -0.0607
10 | RRIRPRPPRLPRPRPRPINNPRP | 0.81
11 | RRIRVRPPRLPRPRPRPPMIPRP | -0.523
12 | RRIRIRPPRLPRPRPRPWWYPRP | -0.179
13 | RRIRHRPPRLPRPRPRPNGEPRP | 0.164
14 | RRIRSRPPRLPRPRPRPKCRPRP | 0.0128
15 | RRIRRRPPRLPRPRPRPFGAPRP | 0.153
16 | RRIRERPPRLPRPRPRPLNFPRP | -0.34
17 | RRIRRRPPRLPRPRPRPQGMPRP | 0.133
18 | RRIRDRPPRLPRPRPRPPTCPRP | 0.0486
19 | RRIRYRPPRLPRPRPRPLDEPRP | 3.09
20 | RRIRFRPPRLPRPRPRPYFRPRP | -0.134
21 | RRIRERPPRLPRPRPRPIRTPRP | -0.577
22 | RRIRHRPPRLPRPRPRPDWFPRP | -0.00508
23 | RRIRVRPPRLPRPRPRPDVVPRP | -0.36
24 | RRIRGRPPRLPRPRPRPYMFPRP | 0.221
25 | RRIRSRPPRLPRPRPRPDASPRP | 0.495

Row | Sequence | shrunken log2 fold change
26 | RRIRKRPPRLPRPRPRPGDNPRP | 0.046
27 | RRIRQRPPRLPRPRPRPLKYPRP | -0.0559
28 | RRIRARPPRLPRPRPRPWGLPRP | 0.617
29 | RRIRLRPPRLPRPRPRPVEVPRP | -0.0272
30 | RRIRVRPPRLPRPRPRPEMHPRP | 0.209
31 | RRIRPRPPRLPRPRPRPCYNPRP | -0.868
32 | RRIRTRPPRLPRPRPRPYHMPRP | -0.293
33 | RRIRPRPPRLPRPRPRPDMRPRP | 0.861
34 | RRIRCRPPRLPRPRPRPMYQPRP | -0.265
35 | RRIRSRPPRLPRPRPRPQWYPRP | -0.73
36 | RRIRVRPPRLPRPRPRPGQKPRP | 0.00253
37 | RRIRDRPPRLPRPRPRPDIHPRP | -0.0156
38 | RRIRARPPRLPRPRPRPVIVPRP | 0.142
39 | RRIRNRPPRLPRPRPRPHKHPRP | -0.719
40 | RRIRCRPPRLPRPRPRPYAVPRP | -0.349
41 | RRIRYRPPRLPRPRPRPLVGPRP | -0.457
42 | RRIRQRPPRLPRPRPRPYMSPRP | -0.655
43 | RRIRARPPRLPRPRPRPHPRPRP | 0.696
44 | RRIRVRPPRLPRPRPRPICMPRP | -0.0265
45 | RRIRERPPRLPRPRPRPDRHPRP | -0.0302
46 | RRIRHRPPRLPRPRPRPRIHPRP | -0.473
47 | RRIRTRPPRLPRPRPRPELPPRP | 0.499
48 | RRIRKRPPRLPRPRPRPHHIPRP | -0.165
49 | RRIRIRPPRLPRPRPRPYNFPRP | -0.99
50 | RRIRKRPPRLPRPRPRPMQFPRP | 0.105

Row | Sequence | shrunken log2 fold change
51 | RRIRPRPPRLPRPRPRPALAPRP | 0.412
52 | RRIRGRPPRLPRPRPRPCKGPRP | -0.0939
53 | RRIRHRPPRLPRPRPRPSNPPRP | -0.219
54 | RRIRKRPPRLPRPRPRPSLHPRP | 0.0624
55 | RRIRNRPPRLPRPRPRPMYFPRP | -0.0737
56 | RRIRNRPPRLPRPRPRPCTTPRP | -0.213
57 | RRIRVRPPRLPRPRPRPFENPRP | -0.0486
58 | RRIRGRPPRLPRPRPRPWIPPRP | -0.429
59 | RRIRIRPPRLPRPRPRPPQTPRP | 0.0803
60 | RRIRQRPPRLPRPRPRPAKEPRP | -0.0803
61 | RRIRMRPPRLPRPRPRPRNWPRP | 0.788
62 | RRIRNRPPRLPRPRPRPKSLPRP | -0.433
63 | RRIRGRPPRLPRPRPRPYGCPRP | -0.091
64 | RRIRERPPRLPRPRPRPAIGPRP | 0.0473
65 | RRIRPRPPRLPRPRPRPGKDPRP | 0.0142
66 | RRIRMRPPRLPRPRPRPGHVPRP | 0.329
67 | RRIRKRPPRLPRPRPRPCVRPRP | -0.215
68 | RRIRRRPPRLPRPRPRPGSVPRP | 0.299
69 | RRIRHRPPRLPRPRPRPQCTPRP | -0.124
70 | RRIRERPPRLPRPRPRPGESPRP | -0.0304
71 | RRIRARPPRLPRPRPRPEPCPRP | 0.126
72 | RRIRARPPRLPRPRPRPCFWPRP | 0.364
73 | RRIRHRPPRLPRPRPRPRLKPRP | -0.0285
74 | RRIRDRPPRLPRPRPRPLEGPRP | 0.0257
75 | RRIRTRPPRLPRPRPRPTNSPRP | -0.334

Row | Sequence | shrunken log2 fold change
76 | RRIRWRPPRLPRPRPRPSVVPRP | -0.00267
77 | RRIRIRPPRLPRPRPRPDRIPRP | 0.0297
78 | RRIRMRPPRLPRPRPRPHIYPRP | -0.289
79 | RRIRARPPRLPRPRPRPNAMPRP | 0.272
80 | RRIRARPPRLPRPRPRPRYRPRP | 0.165
81 | RRIRWRPPRLPRPRPRPWGYPRP | 0.0906
82 | RRIRIRPPRLPRPRPRPRWRPRP | 0.267
83 | RRIRCRPPRLPRPRPRPQIVPRP | -0.345
84 | RRIRGRPPRLPRPRPRPVMTPRP | 1.8
85 | RRIRMRPPRLPRPRPRPDQCPRP | 0.0192
86 | RRIRRRPPRLPRPRPRPCIRPRP | -0.135
87 | RRIRLRPPRLPRPRPRPWNGPRP | -0.217
88 | RRIRKRPPRLPRPRPRPVLIPRP | -0.141
89 | RRIRYRPPRLPRPRPRPEIGPRP | 0.066
90 | RRIRHRPPRLPRPRPRPTRCPRP | -0.00896
91 | RRIRDRPPRLPRPRPRPEETPRP | -0.00131
92 | RRIRARPPRLPRPRPRPKSWPRP | 0.89
93 | RRIRARPPRLPRPRPRPGGRPRP | 0.525
94 | RRIRLRPPRLPRPRPRPSGAPRP | -0.0192
95 | RRIRIRPPRLPRPRPRPQITPRP | -1.22
96 | RRIRWRPPRLPRPRPRPVSGPRP | -0.0172
97 | RRIRKRPPRLPRPRPRPQWFPRP | -0.185
98 | RRIRERPPRLPRPRPRPCATPRP | 0.0398
99 | RRIRQRPPRLPRPRPRPGMPPRP | -0.0642
100 | RRIRYRPPRLPRPRPRPDCDPRP | -0.124

Row | Sequence | shrunken log2 fold change
101 | RRIRGRPPRLPRPRPRPRGQPRP | 0.803
102 | RRIRWRPPRLPRPRPRPHDYPRP | 0.0166
103 | RRIRFRPPRLPRPRPRPYESPRP | 0.0128
104 | RRIRRRPPRLPRPRPRPFDIPRP | -0.0362
105 | RRIRRRPPRLPRPRPRPEYVPRP | 0.0703
106 | RRIRQRPPRLPRPRPRPHTHPRP | -0.342
107 | RRIRFRPPRLPRPRPRPTNAPRP | -0.143
108 | RRIRSRPPRLPRPRPRPPWMPRP | 0.167
109 | RRIRLRPPRLPRPRPRPRWEPRP | 0.0629
110 | RRIRERPPRLPRPRPRPNKVPRP | -0.372
111 | RRIRTRPPRLPRPRPRPDGVPRP | -0.0136
112 | RRIRERPPRLPRPRPRPRYGPRP | 1.59
113 | RRIRIRPPRLPRPRPRPPFSPRP | -0.245
114 | RRIRWRPPRLPRPRPRPMVHPRP | 0.0275
115 | RRIRRRPPRLPRPRPRPRIKPRP | 0.142
116 | RRIRYRPPRLPRPRPRPGSNPRP | -0.0401
117 | RRIRCRPPRLPRPRPRPSKKPRP | -0.0938
118 | RRIRKRPPRLPRPRPRPAAIPRP | 0.255
119 | RRIRRRPPRLPRPRPRPVDWPRP | 0.577
120 | RRIRMRPPRLPRPRPRPTFNPRP | -0.283
121 | RRIRGRPPRLPRPRPRPTLCPRP | 0.443
122 | RRIRIRPPRLPRPRPRPRWPPRP | 0.379
123 | RRIRKRPPRLPRPRPRPTREPRP | 0.48
124 | RRIRPRPPRLPRPRPRPFSRPRP | -0.099
125 | RRIRLRPPRLPRPRPRPYKEPRP | -0.0365

Row | Sequence | shrunken log2 fold change
126 | RRIRRRPPRLPRPRPRPAYMPRP | 0.0857
127 | RRIRQRPPRLPRPRPRPRRNPRP | 0.327
128 | RRIRARPPRLPRPRPRPPKKPRP | 0.342
129 | RRIRYRPPRLPRPRPRPVMTPRP | -0.09
130 | RRIRARPPRLPRPRPRPRHFPRP | 0.157
131 | RRIRDRPPRLPRPRPRPDNTPRP | -0.103
132 | RRIRIRPPRLPRPRPRPFKYPRP | -0.0899
133 | RRIRERPPRLPRPRPRPATCPRP | -0.292
134 | RRIRSRPPRLPRPRPRPESFPRP | -0.0898
135 | RRIRDRPPRLPRPRPRPWQYPRP | -0.482
136 | RRIRHRPPRLPRPRPRPNRKPRP | 0.0857
137 | RRIRHRPPRLPRPRPRPTQCPRP | -0.0253
138 | RRIRFRPPRLPRPRPRPMYIPRP | -1.09
139 | RRIRCRPPRLPRPRPRPARIPRP | 0.0785
140 | RRIRKRPPRLPRPRPRPFHEPRP | -0.154
141 | RRIRPRPPRLPRPRPRPWEIPRP | -0.00151
142 | RRIRVRPPRLPRPRPRPFRAPRP | -0.0855
143 | RRIRHRPPRLPRPRPRPDMLPRP | -0.481
144 | RRIRNRPPRLPRPRPRPVHVPRP | 0.0303
145 | RRIRERPPRLPRPRPRPWHSPRP | -0.252
146 | RRIRDRPPRLPRPRPRPGLMPRP | -0.152
147 | RRIRRRPPRLPRPRPRPVNFPRP | -0.0106
148 | RRIRLRPPRLPRPRPRPVFFPRP | 0.0612
149 | RRIRMRPPRLPRPRPRPWFHPRP | -0.121
150 | RRIRPRPPRLPRPRPRPMFKPRP | -0.0861

Reference: the supplement of paper PMC9112550, “Optimization of the antimicrobial peptide Bac7 by deep mutational scanning” (BMC Biology, 2022)
